From paper PMC12171143, “The Arabidopsis E3 ubiquitin ligase PUB13 synergistically interacts with BON1 to regulate plant flowering and immunity” (Frontiers in Plant Science, 2025)

Biological target: T1, GST-PUB13 (Arabidopsis thaliana, UniProt Q9SNC6 1-660)
T1 construct: also called PUB13-GST; source: purified fusion protein from pGEX-6p-1; E. coli BL21 is named for the PUB13 construct in pGEX-6P-1 of the ubiquitination assay
T1 sequence (looked up): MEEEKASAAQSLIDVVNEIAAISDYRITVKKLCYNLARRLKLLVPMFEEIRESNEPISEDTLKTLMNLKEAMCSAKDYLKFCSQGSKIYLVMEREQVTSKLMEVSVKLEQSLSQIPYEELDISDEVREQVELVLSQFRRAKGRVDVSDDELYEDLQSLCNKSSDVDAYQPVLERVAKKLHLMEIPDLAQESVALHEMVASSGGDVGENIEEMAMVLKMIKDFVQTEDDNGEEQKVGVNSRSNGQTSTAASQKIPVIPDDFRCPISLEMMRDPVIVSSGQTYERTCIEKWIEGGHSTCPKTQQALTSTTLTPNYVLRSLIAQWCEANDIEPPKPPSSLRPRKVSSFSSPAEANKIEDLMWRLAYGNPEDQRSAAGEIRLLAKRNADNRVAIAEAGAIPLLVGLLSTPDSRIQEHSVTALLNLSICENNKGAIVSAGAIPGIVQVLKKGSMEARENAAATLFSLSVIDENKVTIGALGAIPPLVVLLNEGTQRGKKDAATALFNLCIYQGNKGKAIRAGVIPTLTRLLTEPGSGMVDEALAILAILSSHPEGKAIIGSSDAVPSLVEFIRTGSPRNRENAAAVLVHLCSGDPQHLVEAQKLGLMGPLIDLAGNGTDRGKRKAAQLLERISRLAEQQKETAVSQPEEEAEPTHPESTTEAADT
Assay: pull-down; purified fusion proteins mixed, glutathione Sepharose beads 4 h at 4°C, five washes with 1x TBST, eluate blotted with anti-MBP
Conditions: both partners purified

binding result: binds
B1: MBP-BON1 (natural protein, Arabidopsis thaliana, UniProt Q941L3 1-578, looked up)
chain: MGNCCSDVASGAGATAGVGGSGSSAALGATNDALDYYLKSKGFNGLFSQIELSFSASNLRDRDVLSKSDPMVVVYQKEKDATLSEVFRSEVVLNSLAPKWIKKFIVAYHFETVQTLVFRVYDVDTKFQNSREEMLKLDEQQFLGEATCALSEIITKSTRTSTLELKRKDGFAPQAQPHHGKLIIHAEESLASKISTEIVFRCSNLESKDLFSKSDPFLVVSKIVEHGTPIPVSKTEVRKNDLNPIWKPVFLSVQQVGSKDSPVIIECSDFNSNGKHSLIGKVQKSLSDLEKLHLAGQGINFSLPTGAGQNKVLKSQLFVDKFTETVHHTFLEYLASGFELNFMVAIDFTASNGNPRLPDSLHYIDPSGRLNAYQRAIMDVGEVLQFYDSDKRFPAWGFGARPIDAPVSHCFNLNGSSSYSEVDGIQGIMTSYTSALFNVSLAGPTLFGPVINAAAMIASASLAQGSRKYYVLLIITDGVITDLQETKDALVSASDLPLSILIVGVGGADFKEMEILDADKGERLESSSGRLASRDIVQFVALRDVQYGEISVVQALLAELPSQFLTYMRIRNMKPIPP
notes: source: purified fusion protein from pMAL-c4x
